# Results as given in paper PMC11926245 (Nature Communications, 2025).
# Legend:
# [1] = target: the molecule itself; experiment: SEC-MALS; Superdex 200 Increase, 20 mM Na-Hepes pH 7.0, 200 mM NaCl; DNAJC12 3 mg/mL, TH, TH:DNAJC12 complex, TH(1-158) and TH(155-497) 2 mg/mL
# DNAJC12-F193G = target: T1, DNAJC12-F193G (human, UniProt Q9UKB3-1 1-198, F193G); experiment: BLI; biotinylated TH or TH variant immobilised on streptavidin sensors; DNAJC12 or variant 0.01-4 μM in solution; PBS, 0.02% Tween-20, 0.5 mg/mL BSA, 25 °C; responses fitted to a one-site hyperbola; settings: both partners purified
# T1 construct: source: E. coli BL21-CodonPlus(DE3)-RIL, purified (HisTrap, TEV cleavage, TALON, amylose, SEC); not shown: His6, N-terminal, cleaved; MBP, N-terminal, cleaved
# T1 sequence (Q9UKB3 whole entry F193G): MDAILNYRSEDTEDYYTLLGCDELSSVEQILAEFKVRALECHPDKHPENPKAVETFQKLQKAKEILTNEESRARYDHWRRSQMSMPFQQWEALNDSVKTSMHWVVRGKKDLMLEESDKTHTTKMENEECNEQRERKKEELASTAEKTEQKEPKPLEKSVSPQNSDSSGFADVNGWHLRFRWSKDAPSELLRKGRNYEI
Binder,stoichiometry N [1],Kd (DNAJC12-F193G) [nM]
"TH-R202H (TH-p.R202H), variant associated with TH deficiency (enzyme, biotinylated with EZ-Link NHS-PEG4-Biotin for BLI only) not shown",4,–
"TH regulatory domain, TH(1-158) (domain or fragment, human, UniProt P07101-3 1-158, looked up, biotinylated with EZ-Link NHS-PEG4-Biotin for BLI only) MPTPDATTPQAKGFRRAVSELDAKQAEAIMSPRFIGRRQSLIEDARKEREAAVAAAAAAVPSEPGDPLEAVAFEEKEGKAVLNLLFSPRATKPSALSRAVKVFETFEAKIHHLETRPAQRPRAGGPHLEYFVRLEVRRGDLAALLSGVRQVSEDVRSP",2,–
"TH catalytic and oligomerization domains, TH(155-497) (domain or fragment, biotinylated with EZ-Link NHS-PEG4-Biotin for BLI only) not shown",4,–
"Tyrosine hydroxylase, wild-type (hTH1) (enzyme, biotinylated with EZ-Link NHS-PEG4-Biotin for BLI only) not shown",–,1180
